Data taken from publication PMC7717906 (eLife, 2020).

Target: the molecule itself
Test: SEC

B1: His-MoOsm1 (enzyme)
chain: MAEFVRAQIFGTTFEITSRYSDLQPVGMGAFGLVCSARDQLTNQNVAIKKIMKPFSTPVLAKRTYRELKLLKHLKHENVISLSDIFISPLEDIYFVTELLGTDLHRLLTSRPLEKQFIQYFLYQIMRGLKYVHSAGVVHRDLKPSNILVNENCDLKICDFGLARIQDPQMTGYVSTRYYRAPEIMLTWQKYDVEVDIWSAGCIFAEMLEGKPLFPGKDHVNQFSIITELLGTPPDDVINTIASENTLRFVKSLPKRERQPLKNKFKNADPSAIDLLERMLVFDPKKRITATEALAHEYLTPYHDPTDEPIAEEKFDWSFNDADLPVDTWKIMMYSEILDYHNAEAGMQQMDDQFTGQ
stoichiometry N: 2
